B1: AV25-P5(PEG24)-VC-PAB-Exatecan DAR8 ADC (antibody, human IgG1, kappa, L234A L235A)
heavy: not shown
light: DIQMTQSPSSLSASVGDRVTITCSASQDIGNFLNWYQQKPGKTVKVLIYYASSLYSGVPSRFSGSGSGTDYTLTISSLQPEDFATYYCQQYSKLPLTFGQGTKLELKRTVAAPSVFIFPPSDEQLKSGTASVVCLLNNFYPREAKVQWKVDNALQSGNSQESVTEQDSKDSTYSLSSTLTLSKADYEKHKVYACEVTHQGLSSPVTKSFNRGEC
modifications: P5(PEG24)-VC-PAB-Exatecan linker-payload on the interchain cysteine residue (light chain adduct 1; DAR8 in total); P5(PEG24)-VC-PAB-Exatecan linker-payload on interchain cysteine residues (heavy chain adducts up to 3; DAR8 in total)
notes: also called TUB-040
B2: AV25 mAb (LALA-silenced, AV25 HC-LALA) (antibody, human IgG1, kappa, L234A L235A)
heavy: not shown
light: B1 light
notes: IgG1 kappa; also called unmodified AV25 mAb

Columns and labels:
[1] = target: T1, human NaPi2b on NaPi2b-positive cell lines OVCAR-3 and HCC-78 (human, UniProt O95436 1-690); experiment: cell-based or functional assay
T1 sequence: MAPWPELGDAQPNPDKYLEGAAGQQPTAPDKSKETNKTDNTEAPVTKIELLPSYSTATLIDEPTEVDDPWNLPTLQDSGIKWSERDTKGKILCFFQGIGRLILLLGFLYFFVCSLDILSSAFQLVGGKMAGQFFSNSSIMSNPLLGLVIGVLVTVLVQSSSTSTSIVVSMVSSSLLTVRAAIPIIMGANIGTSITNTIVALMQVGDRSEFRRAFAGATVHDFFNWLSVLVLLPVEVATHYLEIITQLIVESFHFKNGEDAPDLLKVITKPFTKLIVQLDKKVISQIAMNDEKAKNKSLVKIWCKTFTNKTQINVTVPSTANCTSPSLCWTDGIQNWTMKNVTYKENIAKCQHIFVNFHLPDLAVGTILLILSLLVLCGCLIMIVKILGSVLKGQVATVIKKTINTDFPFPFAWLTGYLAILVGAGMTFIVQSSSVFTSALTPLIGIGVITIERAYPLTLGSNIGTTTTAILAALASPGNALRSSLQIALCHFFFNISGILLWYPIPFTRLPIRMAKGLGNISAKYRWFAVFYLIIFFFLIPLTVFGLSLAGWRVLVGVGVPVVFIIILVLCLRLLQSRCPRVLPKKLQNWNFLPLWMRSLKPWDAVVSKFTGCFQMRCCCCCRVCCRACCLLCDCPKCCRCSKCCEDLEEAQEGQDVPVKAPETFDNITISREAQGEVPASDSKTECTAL

[2] = target: T2, recombinant human FcγRIIa/CD32 H131 (Lumit binding immunoassay) (human, UniProt P12318 34-217, limits assumed); experiment: Lumit FcγRIIa (CD32) (H131) Binding Immunoassay (Promega), competition with Tracer-LgBiT for FcγR-SmBiT, luminescence, n=1; left panel
T2 construct: Kit reagent (Promega), used as an FcγR-SmBiT fusion; also called FcγRIIa/CD32 R131/H131 polymorphism
T2 sequence (looked up): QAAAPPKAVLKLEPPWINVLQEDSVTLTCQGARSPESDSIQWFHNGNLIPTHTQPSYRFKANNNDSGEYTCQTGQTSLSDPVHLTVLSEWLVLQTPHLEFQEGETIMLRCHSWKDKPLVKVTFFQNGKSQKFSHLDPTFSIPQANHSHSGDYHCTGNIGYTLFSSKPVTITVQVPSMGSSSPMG
Protocol: Luminescence was measured on a microplate reader Infinite M200 Pro (Tecan).
FcγR interaction studies were performed using the Lumit™ FcγR Binding Immunoassays (FcγRn, FcγRI, FcγRIIa/CD32 R131/H131 polymorphism, FcγRIIIa/CD16 V158/F158 polymorphism; Promega) based on a competition principle and luciferase detection according to the manufacturer's instructions. […] Luminescence is measured on a microplate reader Infinite M200 Pro (Tecan)._Graphs show n=1.

Binder	cytotoxicity (resazurin assay) on HCC-78, fold lower IC50 against the anti-Napi2b comparison ADC [1] [fold]	binding result [2]
B1	15.5	no binding (tested: 250 µg/ml)
B2	–	no binding (tested: 250 µg/ml)
